The target of the test is endogenous cTn(I-C) dimer (cTnI with TnC) (human (endogenous in heart tissue)) (UniProt P19429). Put plainly: native MS; native top-down MS on a 12-T FTICR, nanoelectrospray by direct infusion, 200 mM ammonium acetate; the heterotrimer was enriched as a whole from heart tissue on NP-Pep, isolated and its subunits ejected by CAD (complex-up, complex-down).
endogenous cTn(I-C) dimer (cTnI with TnC) (human (endogenous in heart tissue)), sequence (P19429 whole entry, the tested form may be a part): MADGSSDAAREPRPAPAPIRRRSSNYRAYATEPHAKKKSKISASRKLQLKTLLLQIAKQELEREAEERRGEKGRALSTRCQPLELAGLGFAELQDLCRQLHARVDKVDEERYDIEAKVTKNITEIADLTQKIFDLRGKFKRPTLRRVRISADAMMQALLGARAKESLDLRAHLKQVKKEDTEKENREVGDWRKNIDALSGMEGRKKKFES

Turning to “endogenous cardiac troponin T (cTnT) (natural protein)”, the stoichiometry N (cTnT:cTnI:TnC) stood at 1.

(Values after paper PMC10350235.)
